Experiments:
[1] = biological target: HLA-DP2 with human peptide HU29 (human)
[2] = biological target: HLA-DP2 with human peptide HU6 (human)
[3] = biological target: HLA-DP2 with human peptide HU2 (human)
[4] = biological target: HLA-DP2 with human peptide HU33 (human)
[5] = biological target: HLA-DP2 with human peptide HU3 (human)
[6] = biological target: HLA-DP2 with human peptide HU39 (human)
[7] = biological target: HLA-DP2 with human peptide HU24 (human)
[8] = biological target: HLA-DP2 with human peptide HU20 (human)
[9] = biological target: HLA-DP2 with human peptide HU19 (human)
[10] = biological target: HLA-DP2 with human peptide HU35 (human)
[11] = biological target: HLA-DP2 with human peptide HU28 (human)
[12] = biological target: HLA-DP2 with human peptide HU17 (human)
[13] = biological target: HLA-DP2 with human peptide HU21 (human)
[14] = biological target: HLA-DP2 with human peptide HU11 (human)
[15] = biological target: HLA-DP2 with human peptide HU31 (human)
[16] = biological target: HLA-DP2 with human peptide HU9 (human)
[17] = biological target: HLA-DP2 with human peptide HU1 (human)
[18] = biological target: HLA-DP2 with human peptide HU5 (human)
[19] = biological target: HLA-DP2 with human peptide HU25 (human)
[20] = biological target: HLA-DP2 with human peptide HU38 (human)
[21] = biological target: HLA-DP2 with human peptide HU15 (human)
[22] = biological target: HLA-DP2 with human peptide HU22 (human)
[23] = biological target: HLA-DP2 with human peptide HU7 (human)
[24] = biological target: HLA-DP2 with human peptide HU10 (human)
[25] = biological target: HLA-DP2 with human peptide HU16 (human)
[26] = biological target: HLA-DP2 with human peptide HU8 (human)

In the case of AV9 TCR on the T cell hybridoma AV9, the IL-2 secretion of AV9 hybridoma, 0.5 µg/ml peptide, 75 µM BeSO4 [1] is reported as 4.6 pg/mL, the IL-2 secretion of AV9 hybridoma, 0.5 µg/ml peptide, 75 µM BeSO4 [2] is reported as 4.1 pg/mL and the IL-2 secretion of AV9 hybridoma, 0.5 µg/ml peptide, 75 µM BeSO4 [3] is reported as 966 pg/mL. The IL-2 secretion of AV9 hybridoma, 0.5 µg/ml peptide, 75 µM BeSO4 [4] was 954 pg/mL, the IL-2 secretion of AV9 hybridoma, 0.5 µg/ml peptide, 75 µM BeSO4 [5] was 75.1 pg/mL and the IL-2 secretion of AV9 hybridoma, 0.5 µg/ml peptide, 75 µM BeSO4 [6] was 68.7 pg/mL. The IL-2 secretion of AV9 hybridoma, 0.5 µg/ml peptide, 75 µM BeSO4 [7] was 4.6 pg/mL, the IL-2 secretion of AV9 hybridoma, 0.5 µg/ml peptide, 75 µM BeSO4 [8] was 4.6 pg/mL and the IL-2 secretion of AV9 hybridoma, 0.5 µg/ml peptide, 75 µM BeSO4 [9] was 4.6 pg/mL. The IL-2 secretion of AV9 hybridoma, 0.5 µg/ml peptide, 75 µM BeSO4 [10] was 1040 pg/mL, the IL-2 secretion of AV9 hybridoma, 0.5 µg/ml peptide, 75 µM BeSO4 [11] was 4.6 pg/mL and the IL-2 secretion of AV9 hybridoma, 0.5 µg/ml peptide, 75 µM BeSO4 [12] was 16.3 pg/mL. For the same substance, the IL-2 secretion of AV9 hybridoma, 0.5 µg/ml peptide, 75 µM BeSO4 [13] was 48.8 pg/mL, the IL-2 secretion of AV9 hybridoma, 0.5 µg/ml peptide, 75 µM BeSO4 [14] was 5.6 pg/mL and the IL-2 secretion of AV9 hybridoma, 0.5 µg/ml peptide, 75 µM BeSO4 [15] was 1040 pg/mL. It also gave an IL-2 secretion of AV9 hybridoma, 0.5 µg/ml peptide, 75 µM BeSO4 [16] of 48.6 pg/mL, an IL-2 secretion of AV9 hybridoma, 0.5 µg/ml peptide, 75 µM BeSO4 [17] of 1120 pg/mL and an IL-2 secretion of AV9 hybridoma, 0.5 µg/ml peptide, 75 µM BeSO4 [18] of 4.6 pg/mL. For the same substance, the IL-2 secretion of AV9 hybridoma, 0.5 µg/ml peptide, 75 µM BeSO4 [19] was 847 pg/mL, the IL-2 secretion of AV9 hybridoma, 0.5 µg/ml peptide, 75 µM BeSO4 [20] was 5.1 pg/mL and the IL-2 secretion of AV9 hybridoma, 0.5 µg/ml peptide, 75 µM BeSO4 [21] was 49.3 pg/mL. It also gave an IL-2 secretion of AV9 hybridoma, 0.5 µg/ml peptide, 75 µM BeSO4 [22] of 4.1 pg/mL.
AV22 TCR on the T cell hybridoma AV22 showed an IL-2 secretion of AV22 hybridoma, 0.5 µg/ml peptide, 75 µM BeSO4 [3] of 716 pg/mL, an IL-2 secretion of AV22 hybridoma, 0.5 µg/ml peptide, 75 µM BeSO4 [5] of 29.3 pg/mL and an IL-2 secretion of AV22 hybridoma, 0.5 µg/ml peptide, 75 µM BeSO4 [6] of 22.4 pg/mL. The IL-2 secretion of AV22 hybridoma, 0.5 µg/ml peptide, 75 µM BeSO4 [8] was 4.6 pg/mL, the IL-2 secretion of AV22 hybridoma, 0.5 µg/ml peptide, 75 µM BeSO4 [23] was 4.1 pg/mL and the IL-2 secretion of AV22 hybridoma, 0.5 µg/ml peptide, 75 µM BeSO4 [24] was 5.1 pg/mL. For the same substance, the IL-2 secretion of AV22 hybridoma, 0.5 µg/ml peptide, 75 µM BeSO4 [9] was 4.1 pg/mL, the IL-2 secretion of AV22 hybridoma, 0.5 µg/ml peptide, 75 µM BeSO4 [10] was 947 pg/mL and the IL-2 secretion of AV22 hybridoma, 0.5 µg/ml peptide, 75 µM BeSO4 [12] was 15.6 pg/mL. For the same substance, the IL-2 secretion of AV22 hybridoma, 0.5 µg/ml peptide, 75 µM BeSO4 [25] was 4.6 pg/mL, the IL-2 secretion of AV22 hybridoma, 0.5 µg/ml peptide, 75 µM BeSO4 [26] was 4.6 pg/mL and the IL-2 secretion of AV22 hybridoma, 0.5 µg/ml peptide, 75 µM BeSO4 [13] was 17.4 pg/mL. The IL-2 secretion of AV22 hybridoma, 0.5 µg/ml peptide, 75 µM BeSO4 [15] was 973 pg/mL, the IL-2 secretion of AV22 hybridoma, 0.5 µg/ml peptide, 75 µM BeSO4 [16] was 21.7 pg/mL and the IL-2 secretion of AV22 hybridoma, 0.5 µg/ml peptide, 75 µM BeSO4 [17] was 997 pg/mL. It also gave an IL-2 secretion of AV22 hybridoma, 0.5 µg/ml peptide, 75 µM BeSO4 [18] of 4.1 pg/mL, an IL-2 secretion of AV22 hybridoma, 0.5 µg/ml peptide, 75 µM BeSO4 [19] of 622 pg/mL and an IL-2 secretion of AV22 hybridoma, 0.5 µg/ml peptide, 75 µM BeSO4 [20] of 5.6 pg/mL. For the same substance, the IL-2 secretion of AV22 hybridoma, 0.5 µg/ml peptide, 75 µM BeSO4 [22] was 5.1 pg/mL.

Reference: PMC3698527
